Assay results published in patent US8618251.

How the values were obtained:
soluble hFcγRIIB (human) [1] = molecular target: soluble hFcγRIIB (human) (UniProt P31994); assay: SPR Biacore T100; reference of the fold not given
[2] = molecular target: soluble hFcγRIIA^131H (human) (UniProt P12318); assay: SPR Biacore T100; reference of the fold not given
[3] = molecular target: soluble hFcγRIIA^131R (human) (UniProt P12318); assay: SPR Biacore T100; reference of the fold not given
soluble hFcγRIIB (human) [4] = molecular target: soluble hFcγRIIB (human) (UniProt P31994); assay: SPR Biacore T100, steady state, antibody immobilised
[5] = molecular target: soluble hFcγRIIA^131H (human) (UniProt P12318); assay: as above
[6] = molecular target: soluble hFcγRIIA^131R (human) (UniProt P12318); assay: as above

Chain of soluble hFcγRIIA^131H (human) (P12318 34-217): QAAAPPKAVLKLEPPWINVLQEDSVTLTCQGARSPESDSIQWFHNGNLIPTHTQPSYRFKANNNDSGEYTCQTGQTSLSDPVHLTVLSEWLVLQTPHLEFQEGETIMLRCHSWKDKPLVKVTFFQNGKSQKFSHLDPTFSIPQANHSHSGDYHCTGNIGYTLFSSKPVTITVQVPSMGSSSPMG
Chain of soluble hFcγRIIA^131R (human) (P12318 34-217 H167R): as the sequence (P12318 34-217) above, with H134R counted along it
Chain of soluble hFcγRIIB (human) (P31994 43-217 limits assumed): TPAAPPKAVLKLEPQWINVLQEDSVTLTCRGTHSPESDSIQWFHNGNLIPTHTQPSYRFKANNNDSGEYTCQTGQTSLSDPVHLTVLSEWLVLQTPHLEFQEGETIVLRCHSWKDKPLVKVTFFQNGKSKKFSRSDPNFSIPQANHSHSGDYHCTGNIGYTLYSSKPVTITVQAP

Fold change in affinity (soluble hFcγRIIB (human) [1]): 1.3 fold
Fold change in affinity [2]: 2.6 fold
Fold change in affinity [3]: 7.4 fold
Kd (soluble hFcγRIIB (human) [4]): 8.48 µM
Kd [5]: 1340 nM
Kd [6]: 781 nM
B1: 4-4-20 hIgG1 Fc mutant L163P-S183G-K222E-G236A-N276D-S298G-T299A-D312G (antibody, part only; not given: 4-4-20 variable domains, not shown: another chain or arm of the molecule)
constant: ASTKGPSVFPLAPSSKSTSGGTAALGCLVKDYFPEPVTVSWNSGAPTSGVHTFPAVLQSSGLYSLGSVVTVPSSSLGTQTYICNVNHKPSNTKVDKRVEPKSCDETHTCPPCPAPELLAGPSVFLFPPKPKDTLMISRTPEVTCVVVDVSHEDPEVKFDWYVDGVEVHNAKTKPREEQYNGAYRVVSVLTVLHQGWLNGKEYKCKVSNKALPAPIEKTISKAKGQPREPQVYTLPPSRDELTKNQVSLTCLVKGFYPSDIAVEWESNGQPENNYKTTPPVLDSDGSFFLYSKLTVDKSRWQQGNVFSCSVMHEALHNHYTQKSLSLSPGK
